Reference: patent US20120100166A1 (ZYNGENIA, published 2012)
No end group written: not given here.

T1: angiopoietin-2 (Ang2) (human, UniProt O15123 68-496, limits assumed, biotinylated in Examples 22-24 (R&D cat#BT633))
T1 construct: also called rhAng2; recombinant Ang2
T1 sequence (looked up): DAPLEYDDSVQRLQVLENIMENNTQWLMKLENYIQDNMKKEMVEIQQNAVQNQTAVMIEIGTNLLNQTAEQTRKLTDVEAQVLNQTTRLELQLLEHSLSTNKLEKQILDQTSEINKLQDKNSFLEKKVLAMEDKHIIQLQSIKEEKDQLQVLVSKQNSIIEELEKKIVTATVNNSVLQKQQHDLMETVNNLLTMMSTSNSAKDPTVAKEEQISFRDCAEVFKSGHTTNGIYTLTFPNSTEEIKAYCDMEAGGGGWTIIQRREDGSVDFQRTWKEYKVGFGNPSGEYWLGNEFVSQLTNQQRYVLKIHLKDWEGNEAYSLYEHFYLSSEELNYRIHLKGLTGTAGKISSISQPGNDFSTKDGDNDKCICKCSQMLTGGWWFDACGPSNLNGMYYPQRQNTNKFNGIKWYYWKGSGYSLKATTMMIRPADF


Key:
angiopoietin-2 (Ang2) [1] = biological target: T1, angiopoietin-2 (Ang2); experiment: ELISA, rhAng2 coated, MRD-MBP fusion detected with HRP anti-MBP mAb; EC50 from a 4 parameter fit
angiopoietin-2 (Ang2) [2] = biological target: T1, angiopoietin-2 (Ang2); experiment: MBP fusion protein tested for binding to Ang2; method not restated (direct-binding ELISA in Example 19)
Method: For detection of direct binding of MRD-MBP fusions to Ang2, the following ELISA was performed. […] MBP fusion proteins were serially diluted in Blocking buffer and added to wells for 2 hours at RT. After washing (8×300 μl wash buffer), samples were treated with HRP-mouse anti MBP mAb (NEB, cat #E8038S), diluted 1:4000 in Blocking buffer. After incubation for 1 hour at RT, wells were washed (8×3000 wash buffer) prior to receiving 100 μl of TMB substrate (KPL Laboratories). Color development was stopped with 100 μl of H₂SO₄, and absorbance was read at 450 nm.

[3] = biological target: T2, insulin-like growth factor-I receptor (IGF1R) (UniProt P08069 31-932, limits assumed); experiment: ELISA on coated antigen, absorbance at 405 nm, BSA-coated wells as control; single condition
T2 construct: also called immobilized IGF-1R; IGR1R

[4] = biological target: integrin αvβ3 (ELISA antigen) (UniProt P06756 31-992; P05106 27-718, limits assumed); experiment: ELISA on coated antigen, absorbance at 405 nm, BSA-coated wells as control; single condition; the bar is labelled Antigen, taken as the target of the MRD of the construct
integrin αvβ3 (ELISA antigen), sequence (P06756 31-992 limits assumed, chain 1 of 2): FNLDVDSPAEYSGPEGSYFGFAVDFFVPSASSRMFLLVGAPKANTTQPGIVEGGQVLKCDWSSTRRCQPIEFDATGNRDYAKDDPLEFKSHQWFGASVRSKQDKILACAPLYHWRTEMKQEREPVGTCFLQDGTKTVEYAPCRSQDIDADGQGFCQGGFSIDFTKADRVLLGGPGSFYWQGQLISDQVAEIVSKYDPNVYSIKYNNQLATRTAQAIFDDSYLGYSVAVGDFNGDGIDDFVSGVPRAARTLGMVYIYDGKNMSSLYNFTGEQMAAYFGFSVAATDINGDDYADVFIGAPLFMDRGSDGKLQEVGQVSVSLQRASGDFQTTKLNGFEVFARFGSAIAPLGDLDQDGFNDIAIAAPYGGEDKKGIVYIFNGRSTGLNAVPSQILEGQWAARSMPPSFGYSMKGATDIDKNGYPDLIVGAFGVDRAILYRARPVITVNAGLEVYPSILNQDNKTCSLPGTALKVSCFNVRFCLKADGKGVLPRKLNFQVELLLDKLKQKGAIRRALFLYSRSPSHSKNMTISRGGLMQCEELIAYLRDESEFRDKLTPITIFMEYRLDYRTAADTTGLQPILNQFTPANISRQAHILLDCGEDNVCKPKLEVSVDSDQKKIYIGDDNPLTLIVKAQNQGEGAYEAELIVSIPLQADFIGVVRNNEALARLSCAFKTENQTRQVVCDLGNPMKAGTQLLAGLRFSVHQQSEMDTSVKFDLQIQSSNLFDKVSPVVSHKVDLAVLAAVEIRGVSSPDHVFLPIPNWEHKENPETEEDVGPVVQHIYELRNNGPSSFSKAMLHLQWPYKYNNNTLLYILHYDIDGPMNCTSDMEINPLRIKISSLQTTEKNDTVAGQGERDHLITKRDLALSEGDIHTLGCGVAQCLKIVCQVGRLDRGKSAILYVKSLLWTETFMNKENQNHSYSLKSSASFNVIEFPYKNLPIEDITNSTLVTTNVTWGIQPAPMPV
integrin αvβ3 (ELISA antigen), sequence (P05106 27-718 limits assumed, chain 2 of 2): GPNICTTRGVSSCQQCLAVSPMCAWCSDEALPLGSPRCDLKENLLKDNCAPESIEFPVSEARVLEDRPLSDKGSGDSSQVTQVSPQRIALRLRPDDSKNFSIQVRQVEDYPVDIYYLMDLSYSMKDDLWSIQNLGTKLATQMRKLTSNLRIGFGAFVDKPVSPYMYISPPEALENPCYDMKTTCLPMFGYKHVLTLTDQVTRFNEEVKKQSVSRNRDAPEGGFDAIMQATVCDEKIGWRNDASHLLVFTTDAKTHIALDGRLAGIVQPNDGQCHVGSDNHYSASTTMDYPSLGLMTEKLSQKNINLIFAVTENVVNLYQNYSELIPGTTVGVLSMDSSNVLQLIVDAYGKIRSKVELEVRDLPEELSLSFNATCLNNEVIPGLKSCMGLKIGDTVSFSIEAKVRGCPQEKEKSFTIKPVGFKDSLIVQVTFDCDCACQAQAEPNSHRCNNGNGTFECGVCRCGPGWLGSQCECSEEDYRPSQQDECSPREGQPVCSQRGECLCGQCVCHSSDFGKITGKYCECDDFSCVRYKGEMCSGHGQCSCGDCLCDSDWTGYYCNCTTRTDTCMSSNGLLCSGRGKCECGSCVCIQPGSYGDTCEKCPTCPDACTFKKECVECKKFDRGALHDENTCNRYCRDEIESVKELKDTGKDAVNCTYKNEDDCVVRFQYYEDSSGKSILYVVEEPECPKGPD

Row | Binder | EC50 (angiopoietin-2 (Ang2) [1]) | EC50 (angiopoietin-2 (Ang2) [2]) | also measured
1 | MGAQTNFMPMNDDELLLYEQFILQQGLE (other) [L1-7D MND] | 411 pM | – | –
2 | KSLSLSPGSGGGSMGAQTNFMPMDNDELLLYEQFI (other, not shown: large carriers; small tags and cut ends, not fully specified (N-terminus); also: fused to maltose binding protein carrier at N-terminus) [LM32 variant SEQ ID NO:142 expressed as MBP fusion protein] | – | 1080 pM | –
3 | KSLSLSPGSGGGSMGAQTNFMPMDNEELLLYEQFI (other, not shown: large carriers; small tags and cut ends, not fully specified (N-terminus); also: fused to maltose binding protein carrier at N-terminus) [LM32 variant SEQ ID NO:143 expressed as MBP fusion protein] | – | 20700 pM | –
4 | Her-1L-RP (bispecific antibody, also called Her-lL-RP; not shown: kappa light chain constant region; heavy chain constant region) light (part 1 of 2): not shown light (part 2 of 2): SSGGGGSGGGGGGSSRSSSFYSCLESLVNGPAEKSRGQWDGCRKK heavy: not shown | – | – | binding result [3]: no binding (tested: not shown)
5 | PGSGGGSMGAQTNFMPMDNDELLLYEQFILQQGLE (other) [Lm32 KtoS] | 199 pM | – | –
6 | KSLSLSPGSGGGSMGAQTNFMPMDNDEGLLYEQFILQQGLE (other, not shown: large carriers; small tags and cut ends, not fully specified (N-terminus); also: fused to maltose binding protein carrier at N-terminus) [LM32 variant SEQ ID NO:88 expressed as MBP fusion protein] | – | 1040 pM | –
7 | KSLSLSPGSGGGSMGAQTNFMPMDNDEALLYEQFILQQGLE (other, not shown: large carriers; small tags and cut ends, not fully specified (N-terminus); also: fused to maltose binding protein carrier at N-terminus) [LM32 variant SEQ ID NO:90 expressed as MBP fusion protein] | – | 182 pM | –
8 | KSLSLSPGSGGGSMGAQTNFMPMDDDELLLYEQFILQQGLE (other, not shown: large carriers; small tags and cut ends, not fully specified (N-terminus); also: fused to maltose binding protein carrier at N-terminus) [LM32 variant SEQ ID NO:100 expressed as MBP fusion protein] | – | 240 pM | –
9 | KSLSLSPGSGGGSMGAQTNFMPMDNDELTLYEQFILQQGLE (other, not shown: large carriers; small tags and cut ends, not fully specified (N-terminus); also: fused to maltose binding protein carrier at N-terminus) [LM32 variant SEQ ID NO:91 expressed as MBP fusion protein] | – | 1420 pM | –
10 | KSLSLSPGSGGGSMGAQTNFMPMDNDEALLYEQFIYQQGLE (other, not shown: large carriers; small tags and cut ends, not fully specified (N-terminus); also: fused to maltose binding protein carrier at N-terminus) [LM32 variant SEQ ID NO:94 expressed as MBP fusion protein] | – | 392 pM | –
11 | KSLSLSPGSGGGSMGAQTNFMPMDNDEALLYEEFILQQGLE (other, not shown: large carriers; small tags and cut ends, not fully specified (N-terminus); also: fused to maltose binding protein carrier at N-terminus) [LM32 variant SEQ ID NO:97 expressed as MBP fusion protein] | – | 426 pM | –
12 | KSLSLSPGSGGGSMGAQTNFMPMDQDELLLYEQFILQQGLE (other, not shown: large carriers; small tags and cut ends, not fully specified (N-terminus); also: fused to maltose binding protein carrier at N-terminus) [LM32 variant SEQ ID NO:99 expressed as MBP fusion protein] | – | 383 pM | –
13 | KSLSLSPGSGGGSMGAQTNFMPMDNDEGLLYEQFIYQQGLE (other, not shown: large carriers; small tags and cut ends, not fully specified (N-terminus); also: fused to maltose binding protein carrier at N-terminus) [LM32 variant SEQ ID NO:93 expressed as MBP fusion protein] | – | 902 pM | –
14 | KSLSLSPGSGGGSMGAQTNFMPMDNDEGLLYEEFILQQGLE (other, not shown: large carriers; small tags and cut ends, not fully specified (N-terminus); also: fused to maltose binding protein carrier at N-terminus) [LM32 variant SEQ ID NO:96 expressed as MBP fusion protein] | – | 922 pM | –
15 | MGAQTNFMPMSDDELLLYEQFILQQGLE (other) [L1-7D MSD] | 1380 pM | – | –
16 | MGAQTNFMPMHDDELLLYEQFILQQGLE (other) [L1-7D MHD] | 17000 pM | – | –
17 | Her-sL-RGD4C (bispecific antibody, also called C-terminal fusion of integrin αvβ3 targeting MRD with the ErbB2 antibody with the short linker peptide; not shown: kappa light chain constant region; heavy chain constant region) light (part 1 of 2): not shown light (part 2 of 2): GGGSCDCRGDCFC heavy: not shown | – | – | binding result [4]: no binding (tested: not shown)
18 | MGAQTNFMPMGDDELLLYEQFILQQGLE (other) [L1-7D MGD] | 600 pM | – | –
19 | MGAQTNFMPMTDDELLLYEQFILQQGLE (other) [L1-7D MTD] | 7340 pM | – | –
